Measured values from patent US12286661B2, “Methods for making high intensity sweeteners” (Firmenich Incorporated, priority 2018, dated 2025).

B1: SEQ ID NO. 889/890: CYP450 enzyme (DNA/protein SEQ ID NO) producing 11-OH cucurbitadienol (protein)
chain: MEVHWVCMCAATLLVCYIFGSKFVRNLNGWYYDVKLRRKEHPLPPGDMGWPLMGNLLSFIKDFSSGHPDSFINNLVLKYGRSGIYKTHLFGNPSIIVCEPQMCRRVLTDDVNFKLGYPKSIKELARCRPMIDVSNAEHRLFRRLITSPIVGHKALAMYLERLEEIVINSLEELSSMKHPVELLKEMKKVSFKAIVHVFMGSSNQDIIKKIGSSFTDLYNGMFSIPINVPGFTFHKALEARKKLAKIVQPVVDERRLMIENGQQEGDQRKDLIDILLEVKDENGRKLEDEDISDLLIGLLFAGHESTATSLMWSITYLTQHPHILKKAKEEQEEIMRTRLSSQKQLSFKEIKQMVYLSQVIDETLRCANIAFATFREATADVNINGYIIPKGWRVLIWARAIHMDSEYYPNPEEFNPSRWDDYNAKAGTFLPFGAGSRLCPGADLAKLEISIFLHYFLLNYRLERVNPECHVTSLPVSKPTDNCLAKVMKVSCA
modifications: Pathway step 3 sequence T CYP88D6 (codon optimized)
B2: SEQ ID NO. 1030/1031: CYP450 enzyme (DNA/protein SEQ ID NO) producing 11-OH cucurbitadienol (protein)
chain: MWTIGLCIVAVLVIYLSYRLNKWSNPKCNGILPPGSMGLPLIGETLQLIVPSYSLDLHPFIKKKAQKYGPIFRTSVAGSPIVVSIDPEFNHYIVKQEGRLVELWYLDSFSKLFSTEGENKTNAIGVVHKYIRSIALNHFGVDPLKEKLLPQIEEFVDKALQTWSSHPLVEMKHAASVMIFDFSAKLFISYDAENSPMKMSEKFTNILGGFMSFPLNIPGTTYHKCLKDRNEALSMLRKIFKERINSPKRHFEDLLDQAINDTDKEKFLPEDFIINVVFGLLFASFESISAALSLILNLLAEHPAVLQELTDEHKAILKNRESPNSILTWDEYKSMTFTHQVINEALRLGGVAPGLLRKALKDIEFKGYTIPAGWTIMLVNSAIQLNPNTYKDPLAFNPWRWKDLDSLFVSKNFMPFGGGIRQCVGAEYSKTFLATFLHVLVTKYRWTKVKGGTIVRNPILEFTDGLHIKFSAISN
modifications: Quercus suber
B3: SEQ ID NO. 1026/1027: CYP450 enzyme (DNA/protein SEQ ID NO) producing 11-OH cucurbitadienol (protein, listed as Cucumis sativus)
chain: MWTILLGLATLAIAYYIHWVNKWKDSKFNGVLPPGTMGLPLIGETIQLSRPSDSLDVHPFIQRKVKRYGPIFKTCLAGRPVVVSTDAEFNHYIMLQEGRAVEMWYLDTLSKFFGLDTEWLKALGLIHKYIRSITLNHFGAESLRERFLPRIEESARETLHYWSTQTSVEVKESAAAMVFRTSIVKMFSEDSSKLLTEGLTKKFTGLLGGFLTLPLNLPGTTYHKCIKDMKQIQKKLKDILEERLAKGVKIDEDFLGQAIKDKESQQFISEEFIIQLLFSISFASFESISTTLTLILNFLADHPDVVKELEAEHEAIRKARADPDGPITWEEYKSMNFTLNVICETLRLGSVTPALLRKTTKEIQIKGYTIPEGWTVMLVTASRHRDPEVYKDPDTFNPWRWKELDSITIQKNFMPFGGGLRHCAGAEYSKVYLCTFLHILFTKYRWRKLKGGKIARAHILRFEDGLYVNFTPKE
B4: SEQ ID NO. 1028/1029: CYP450 enzyme (DNA/protein SEQ ID NO) producing 11-OH cucurbitadienol (protein)
chain: MWTILLGLATLAIAYYIHWVNKWKDSKFNGVLPPGTMGLPLIGETIQLSRPSDSLDVHPFIQSKVKRYGPIFKTCLAGRPVVVSTDAEFNHYIMLQEGRAVEMWYLDTLSKFFGLDTEWLKALGLIHKYIRSITLNHFGAESLRERFLPRIEESARETLHYWSTQPSVEVKESAAAMVFRTSIVKMFSEDSSKLLTAGLTKKFTGLLGGFLTLPLNVPGTTYHKCIKDMKEIQKKLKDILEERLAKGVSIDEDFLGQAIKDKESQQFISEEFIIQLLFSISFASFESISTTLTLILNFLADHPDVAKELEAEHEAIRKARADPDGPITWEEYKSMNFTLNVICETLRLGSVTPALLRKTTKEIQIKGYTIPEGWTVMLVTASRHRDPEVYKDPDTFNPWRWKELDSITIQRNFMPFGGGLRHCAGAEYSKVYLCTFLHILFTKYRWRKLKGGKIARAHILRFEDGLYVNFTPKE
modifications: Cucumis melo
B5: SEQ ID NO. 1054/1055: glycosyltransferase (DNA/protein SEQ ID NO) producing mogroside I from mogrol (protein, listed as Barbarea vulgaris)
chain: MVSEITHKSYPLHFVLFPFMAQGHMIPMVDIARLLAQRGVKITIVTTPHNAARFENVLSRAIESGLPISIVQVKLPSQEAGLPEGNETFDSLVSMELLVPFFKAVNMLEEPVQKLFEEMSPQPSCIISDFCLPYTSKIAKKFNIPKILFHGMCCFCLLCMHVLRKNREILENLKSDKEHFVVPYFPDRVEFTRPQVPMATYVPGEWHEIKEDIVEADKTSYGVIVNTYQELEPAYANDYKEARSGKAWTIGPVSLCNKVGADKAERGNKADIDQDECLKWLDSKEEGSVLYVCLGSICSLPLSQLKELGLGLEESQRPFIWVVRGWEKNKELLEWFSESGFEERVKDRGLLIKGWSPQMLILAHHSVGGFLTHCGWNSTLEGITSGIPLLTWPLFGDQFCNQKLVVQVLKVGVSAGVEEVTNWGEEEKIGVLVDKEGVKKAVEELMGESDDAKERRKRVKELGQLAQKAVEEGGSSHSNITSLLEDIMQLAQSNN
B6: SEQ ID NO. 1056/1057: glycosyltransferase (DNA/protein SEQ ID NO) producing mogroside I from mogrol (protein, listed as Barbarea vulgaris)
chain: MVSEITHKSYPLHFVLFPFMAQGHMIPMVDIARLLAQRGVKITIVTTPHNAARFENVLSRAIESGLPISIVQVKLPSQEAGLPEGNETFDSLVSTKLLVPFFKAVNMLEEPVQKLFEEMSPQPSCIISDFCLPYTSKIAKKFNIPKILFHGMCCFCLLCMHVLRKNREILENLKSDKEHFVVPYFPDRVEFTRPQVPLATYVPGEWHEIKEDMVEADKTSYGVIVNTYQELEPAYANGYKEARSGKAWTIGPVSLCNKVGADKAERGNKADIDQDECLKWLDSKEEGSVLYVCLGSICSLPLSQLKELGLGLEESQRPFIWVVRGWEKNKELLEWFSESGFEERVKDRGLLIKGWSPQMLILAHHSVGGFLTHCGWNSTLEGITSGVPLLTWPLFGDQFCNQKLVVQVLKVGVSAGVEEVTNWGEEEKIGVLVDKEGVKKAVEELMGESDDAKEIRKRVKELGQLAHKAVEEGGSSHSNITSLLEDIMQLAQPNN
B7: SEQ ID NO. 1052/1053: glycosyltransferase (DNA/protein SEQ ID NO) producing mogroside I from mogrol (protein, listed as Siraitia grosvenorii)
chain: MEKGDTHILVFPFPSQGHINPLLQLSKRLIAKGIKVSLVTTLHVSNHLQLQGAYSNSVKIEVISDGSEDRLETDTMRQTLDRFRQKMTKNLEDFLQKAMVSSNPPKFILYDSTMPWVLEVAKEFGLDRAPFYTQSCALNSINYHVLHGQLKLPPETPTISLPSMPLLRPSDLPAYDFDPASTDTIIDLLTSQYSNIQDANLLFCNTFDKLEGEIIQWMETLGRPVKTVGPTVPSAYLDKRVENDKHYGLSLFKPNEDVCLKWLDSKPSGSVLYVSYGSLVEMGEEQLKELALGIKETGKFFLWVVRDTEAEKLPPNFVESVAEKGLVVSWCSQLEVLAHPSVGCFFTHCGWNSTLEALCLGVPVVAFPQWADQVTNAKFLEDVWKVGKRVKRNEQRLASKEEVRSCIWEVMEGERASEFKSNSMEWKKWAKEAVDEGGSSDKNIEEFVAMLKQT

Test system: cucurbitadienol
Test: 11-OH cucurbitadienol production from cucurbitadienol by CYP450s expressed in S. cerevisiae, LCMS
Format: cell-based
Settings: S. cerevisiae strain producing cucurbitadienol and expressing SgCPR; LCMS peak area of product vs. internal reference; hits over vector only control
Description: (§1) DNA was obtained through gene synthesis either through Genescript, IDT, or Genewiz. For some of the cucurbitadienol synthases, cDNA or genomic DNA was obtained through 10-60 day old seedlings followed by PCR amplification using specific and degenerate primers. DNA was cloned through standard molecular biology techniques or through yeast gap repair cloning (Joska et al., 2014) into one of the following overexpression vectors: pESC-Ura, pESC-His, or pESC-LEU. Gene expression was regulated by one of the following promoters; Gall, Gal10, Tef1, or GDS. Yeast transformation was performed using Zymo Yeast Transformation Kit II. Yeast strains were grown in standard media (YPD or SC) containing the appropriate selection with 2% glucose or 2% galactose for induction of heterologous genes. Yeast strains were grown in shake flask or 96 well plates at 30° ° C., 140-250 rpm. When indicated, lanosterol synthase inhibitor, Ro 48-8071 (Cayman Chemicals) was added (50 ug/ml). Yeast samples producing mogrol precursors, mogrol and mogrosides were processed through one of the following: • Cucurbitadienol and 11-OH Cucurbitadienol: Samples cell pellets were lysed (Yeast Buster) followed by ethyl acetate extraction, drying, and resuspension in methanol. • ·Mogrol and Mogrosides: Samples cell pellets were lysed in 50% ETOH, incubated at 80° C. for 30 min, filtered, dried and resuspended in MeOH for LCMS screening.
For analyzing 11-OH cucurbitadienol, the LCMS method included the use of C8 2.1×100 mm column, gradient 60 to 90% B for 6 minutes at flow rate of 0.55 ml/min. For the enzyme screening, the LCMS method used was a Waters Acquity UPLC Protein BEH C4, 2.1×100 mm, 1.7 μm column and a gradient of 40% to 80% over 5 minutes, 95% B from 5.1 to 5.6 minutes with a flow rate of 0.55 ml/min, and ESI source positive mode single ion monitoring of 425.4.
Additional CYP450s were expressed in S. cerevisiae strain producing cucurbitadienol and expressing SgCPR. DNA and protein sequences for the CYP450 enzymes are shown in SEQ IDs 871-890 and 1024-1049 (see Table 1).

In order of falling “Peak Area 11-OH CCB” value:
1. B3  0.9893
2. B4  0.9703
3. B2  0.9207
4. B1  0.649

Test system: mogrol
Test: Mogroside IA and/or IE production from mogrol by glycosyltransferases expressed in S. cerevisiae, LCMS
Format: cell-based
Settings: 10 μM mogrol, 2-4 days at 30° C.; identified by LCMS
Description: as §1
For analyzing Mogroside IIIE & Compound 1, the LCMS method included the use of Fluoro-phenyl 2.1×100 mm column, gradient 15 to 30% B for 6 minutes, at flow rate of 0.55 ml/min. For analyzing yeast production of mogroside I during enzyme screening, the LCMS method used a Phenomenex Kinetex Polar C18, 4.6×100 mm, 2.6 μm column, and a gradient of 25% to 55% B over 3 minutes, and 100% B at 3.5 minutes with a flow rate of 1.5 ml/min. Detection by ESI source negative mode single ion monitoring of 683.4 for mogroside I and 799.4 for mogroside II.
Various glycosyltransferase proteins were expressed in S. cerevisiae grown in the presence of 10 μM mogrol for 2-4 days at 30° C., 140-250 rpm in either shake flask or 96 well plates. Glycosyltransferases leading to production of Mogroside IA (glycosylation of C24-OH position) and/or Mogroside IE (glycosylation of C3-OH position) are provided in Table 6. DNA and protein sequences for the enzymes are provided in SEQ IDs 1050-1071 (see Table 1).

In order of falling “Mogroside IA” value:
1. B5  659331
2. B6  200270
3. B7  1605

In order of rising “Mogroside IE” value:
1. B6  4690
2. B5  17857
3. B7  22917
